# Positions count from the first letter of the chain named.
# B1: Pembrolizumab (antibody, V domains shown)
# VH: QVQLVQSGVEVKKPGASVKVSCKASGYTFTNYYMYWVRQAPGQGLEWMGGINPSNGGTNFNEKFKNRVTLTTDSSTTTAYMELKSLQFDDTAVYYCARRDYRFDMGFDYWGQGTTVTVSS
# VL: EIVLTQSPATLSLSPGERATLSCRASKGVSTSGYSYLHWYQQKPGQAPRLLIYLASYLESGVPARFSGSGSGTDFTLTISSLEPEDFAVYYCQHSRDLPLTFGGGTKVEIKR
# B2: VH18 (anti-PD-1 VHH) (VHH)
# VHH: EVQLVESGGGLVQPGGSLRLSCAVSGNIYNRNFMGWFRQAPGKGREGVSAIYTGTSRTYYADSVKGRFTISRDNAKNTVYLQMNSLRPEDTAVYYCAADLRDGFWDTGVWNTWGQGTLVTVSS
# notes: also called VH18 VHH; anti-PD1 parental antibody VH18
# B3: VH8M1 (anti-PD-1 VHH) (VHH)
# VHH: B2 VHH with R45L, A75S, P88A, D102E
# notes: also called VH8M1 VHH; anti-PD-1 parental nanobody
# Experiments:
# cynomolgus PD1 = target: T1, cynomolgus PD1 (cynomolgus, UniProt B0LAJ3 25-170); assay: ELISA, cynomolgus PD1 coated, anti-human IgG-HRP detection
# T1 construct: Recombinant protein for ELISA; also called cynomolgus PD1 protein
# Method: (§1) To evaluate PD1 binding activity of the test bispecific antibodies, human PD1 and cynomolgus PD1 diluted in PBS were coated on a microplate respectively at 4° C. overnight. Three-fold dilution of test antibodies starting from 100 nM were added to each well and incubated for 1 hours at 25° C. Then, the plates were washed with ELISA washing buffer (1×DPBS with 0.5% Tween-20) and incubated with peroxidase conjugated anti-human IgG secondary antibody for 60 minutes at 25° C. After washed four times with ELISA washing buffer, the plates were detected by TMB-ELISA substrate solution, then stopped by ELISA stopping solution and analyzed by microplate reader at OD450 nm.
# human PD1 = target: T2, human PD1 (human, UniProt Q15116 25-167, limits assumed); assay: ELISA, human PD1 coated, anti-human IgG-HRP detection
# T2 construct: Recombinant protein for ELISA; also called human PD1 protein
# Method: as §1
# [1] = target: T3, human PD-1 overexpressed on cells (human, UniProt Q15116 25-288); assay: cell-based or functional assay
# [2] = target: T3, human PD-1 overexpressed on cells; assay: flow cytometry on CHO-K1 cells overexpressing human PD-1, PE secondary antibody
# Method: (§2) To further determine PD-1 binding activity of the bispecific antibodies, CHO-K1 cells overexpressing human PD-1 were incubated with different concentrations of anti-PD1-VEGF bispecific antibodies and reference antibodies at 4° C. for 30 minutes. Then, the cells were washed twice with FACS buffer and stained with PE conjugated secondary antibody at 4° C. for 30 minutes. After wash twice with FACS buffer, MFI of PE was analyzed by a NovoCyte flow cytometer.
# [3] = target: T3, human PD-1 overexpressed on cells; assay: flow cytometry on CHO-K1 cells overexpressing human PD-1; column headed OD450 but the text says MFI of PE; set-up: unit not given here
# Method: as §2
# T3 sequence (Q15116 25-288): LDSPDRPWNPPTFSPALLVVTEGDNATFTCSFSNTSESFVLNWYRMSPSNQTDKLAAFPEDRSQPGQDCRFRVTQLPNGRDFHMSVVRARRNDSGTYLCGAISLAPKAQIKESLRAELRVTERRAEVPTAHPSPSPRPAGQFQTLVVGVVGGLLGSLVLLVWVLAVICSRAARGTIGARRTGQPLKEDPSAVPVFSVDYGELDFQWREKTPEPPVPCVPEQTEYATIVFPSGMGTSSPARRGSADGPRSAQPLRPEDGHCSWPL
# T1 sequence (B0LAJ3 entry or part of it limits assumed, form in doubt): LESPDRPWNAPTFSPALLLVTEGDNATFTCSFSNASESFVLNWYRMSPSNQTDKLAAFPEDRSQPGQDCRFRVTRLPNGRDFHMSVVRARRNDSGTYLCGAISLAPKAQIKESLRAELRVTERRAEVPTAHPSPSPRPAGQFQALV
# T2 sequence (Q15116 25-167 limits assumed): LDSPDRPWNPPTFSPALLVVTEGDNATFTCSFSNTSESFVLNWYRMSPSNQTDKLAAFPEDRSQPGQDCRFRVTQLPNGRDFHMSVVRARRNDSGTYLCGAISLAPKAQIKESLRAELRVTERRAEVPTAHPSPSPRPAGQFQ
EC50 (cynomolgus PD1) [pM],Top (OD450) (cynomolgus PD1),EC50 (human PD1) [pM],Top (OD450) (human PD1),"EC50 (nM), PD1 blocking activity (PD1 reporter gene assay) [1] [nM]","Top (RLU), PD1 blocking activity (PD1 reporter gene assay) [1] [RLU]",EC50 [2] [pM],Top (OD450) [3],Binder
57,1.17,–,–,–,–,–,–,B1
151,1.56,83,1.75,11.2,191000,2350,963000,B2
–,–,–,–,13.3,201000,759,448000,B3
